Assay results reported in publication PMC4081077, “Sequence-specific interactions of Rep proteins with ssDNA in the AT-rich region of the plasmid replication origin”.

Legend:
[1] = target: T1, TrfA-33 G254D/S267L (monomeric) (plasmid RK2, UniProt P07676 98-382, G254D;S267L); experiment: EMSA; EMSA: 40 mM HEPES-KOH pH 8, 25 mM Tris-HCl pH 7.6, 100 mM NaCl, 4% sucrose, 4 mM DTT, 80 ug/ml BSA, 32 C 20 min, 1 pmol probe, 5-20 pmol Rep; SPR: HBS-EP (150 mM NaCl, 10 mM HEPES pH 7.4, 3 mM EDTA, 0.005% P20); conditions: protein: recombinant; label: Alexa555 3' tailed (EMSA); immobilized on streptavidin chip (SPR); fluorescent (gel filtration)
T1 sequence: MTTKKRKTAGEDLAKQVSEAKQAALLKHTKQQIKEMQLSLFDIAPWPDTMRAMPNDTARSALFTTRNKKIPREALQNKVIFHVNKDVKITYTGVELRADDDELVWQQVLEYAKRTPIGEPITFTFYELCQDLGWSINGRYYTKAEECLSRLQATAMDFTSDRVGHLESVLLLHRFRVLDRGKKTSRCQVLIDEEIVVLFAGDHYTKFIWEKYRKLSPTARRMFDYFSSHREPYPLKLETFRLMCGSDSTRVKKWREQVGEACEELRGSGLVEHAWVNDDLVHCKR

[2] = target: T1, TrfA-33 G254D/S267L (monomeric); experiment: EMSA; up to 20 pmol TrfA per 1 pmol probe; EMSA: 40 mM HEPES-KOH pH 8, 25 mM Tris-HCl pH 7.6, 100 mM NaCl, 4% sucrose, 4 mM DTT, 80 ug/ml BSA, 32 C 20 min, 1 pmol probe, 5-20 pmol Rep; SPR: HBS-EP (150 mM NaCl, 10 mM HEPES pH 7.4, 3 mM EDTA, 0.005% P20); conditions: protein: recombinant; label: Alexa555 3' tailed (EMSA); immobilized on streptavidin chip (SPR); fluorescent (gel filtration)
[3] = target: T1, TrfA-33 G254D/S267L (monomeric); experiment: SPR; 0.1-1 uM TrfA; response over five times lower than wild type; EMSA: 40 mM HEPES-KOH pH 8, 25 mM Tris-HCl pH 7.6, 100 mM NaCl, 4% sucrose, 4 mM DTT, 80 ug/ml BSA, 32 C 20 min, 1 pmol probe, 5-20 pmol Rep; SPR: HBS-EP (150 mM NaCl, 10 mM HEPES pH 7.4, 3 mM EDTA, 0.005% P20); conditions: protein: recombinant; label: Alexa555 3' tailed (EMSA); immobilized on streptavidin chip (SPR); fluorescent (gel filtration)
RepE R118P (monomeric) = RepE R118P (monomeric) (plasmid F, UniProt P03856 1-251, R118P); experiment: gel filtration; tripartite with plasmid cccDNA; EMSA: 40 mM HEPES-KOH pH 8, 25 mM Tris-HCl pH 7.6, 100 mM NaCl, 4% sucrose, 4 mM DTT, 80 ug/ml BSA, 32 C 20 min, 1 pmol probe, 5-20 pmol Rep; SPR: HBS-EP (150 m)
[4] = target: T1, TrfA-33 G254D/S267L (monomeric); experiment: SPR; 0.1-1 uM TrfA; higher affinity than bottom ssDNA; EMSA: 40 mM HEPES-KOH pH 8, 25 mM Tris-HCl pH 7.6, 100 mM NaCl, 4% sucrose, 4 mM DTT, 80 ug/ml BSA, 32 C 20 min, 1 pmol probe, 5-20 pmol Rep; SPR: HBS-EP (150 mM NaCl, 10 mM HEPES pH 7.4, 3 mM EDTA, 0.005% P20); conditions: protein: recombinant; label: biotin; blunt

B1: ssDNA DUEoriV bottom swap M2-R (ssDNA)
DNA: CCACCGCATTGGACAGAAAATTGGACGAAAATAACCAATATTTATAAACCTTGTTTTTAACCAGGGCTGC
binding result [1]: no binding

B2: ssDNA DUEoriV top (ssDNA)
DNA: CCACCGCTAACCTGTCTTTTAACCTGCTTTTAAACCAATATTTATAAACCTTGTTTTTAACCAGGGCTGC
binding result [2]: no binding

B3: ssDNA DUEoriV bottom swap M1-R (ssDNA)
DNA: CCACCGCATTGGACAGAAAAAACCTGCTTTTAAACCAATATTTATAAACCTTGTTTTTAACCAGGGCTGC
binding result [1]: no binding

B4: ssDNA DUEoriV bottom swap R (ssDNA)
DNA: CCACCGCATTGGACAGAAAATTGGACGAAAATTTGGTTATAAATTAAACCTTGTTTTTAACCAGGGCTGC
binding signal [3]: < 0.2 SPR response relative to N2

B5: ssDNA DUEoriS bottom (ssDNA)
DNA: GCTCTAAAAAAGAAGATCTAAAAACTATAAAAAAAATAATTATAAAAATATCCCCGTG
binding result (RepE R118P (monomeric)): binds

B6: dsDNA iterons (five RK2 iterons) (dsDNA)
DNA 1: CCTGCGGTATTGACACTTGAGGGGCGCGACTACTGACAGATGAGGGGCGCGATCCTTGACACTTGAGGGGCAGAGTGATGACAGATGAGGGGCGCACCTATTGACATTTGAGGGGCTGTCCACAGGCAG
DNA 2: CTGCCTGTGGACAGCCCCTCAAATGTCAATAGGTGCGCCCCTCATCTGTCATCACTCTGCCCCTCAAGTGTCAAGGATCGCGCCCCTCATCTGTCAGTAGTCGCGCCCCTCAAGTGTCAATACCGCAGG
binding result [4]: binds
